In patent US20220281931:

Target: Strep II-Avi BCL6^5-360

B1: Flag-SIAH1^FL (protein)
chain: MSRQTATALPTGTSKCPPSQRVPALTGTTASNNDLASLFECPVCFDYVLPPILQCQSGHLVCSNCRPKLTCCPTCRGPLGSIRNLAMEKVANSVLFPCKYASSGCEITLPHTEKADHEELCEFRPYSCPCPGASCKWQGSLDAVMPHLMHQHKSITTLQGEDIVFLATDINLPGAVDWVMMQSCFGFHFMLVLEKQEKYDGHQQFFAIVQLIGTRKQAENFAYRLELNGHRRRLTWEATPRSIHEGIATAIMNSDCLVFDTSIAQLFAENGNLGINVTISMC
In the case of B1, the “in vitro ubiquitination (western blot, Strep tag II antibody)” value is reported as “BCL6 is a substrate for SIAH1 (FIG. 10D), and that the rate and magnitude of ubiquitination is accelerated by BI-3802 (FIG. 4B)”.
